The source of these data is patent publication US20030108998.

The target of this series is purified bovine aggrecan monomers isolated from bovine nasal cartilage, P13608.
purified bovine aggrecan monomers isolated from bovine nasal cartilage, P13608, sequence (P13608 17-2364): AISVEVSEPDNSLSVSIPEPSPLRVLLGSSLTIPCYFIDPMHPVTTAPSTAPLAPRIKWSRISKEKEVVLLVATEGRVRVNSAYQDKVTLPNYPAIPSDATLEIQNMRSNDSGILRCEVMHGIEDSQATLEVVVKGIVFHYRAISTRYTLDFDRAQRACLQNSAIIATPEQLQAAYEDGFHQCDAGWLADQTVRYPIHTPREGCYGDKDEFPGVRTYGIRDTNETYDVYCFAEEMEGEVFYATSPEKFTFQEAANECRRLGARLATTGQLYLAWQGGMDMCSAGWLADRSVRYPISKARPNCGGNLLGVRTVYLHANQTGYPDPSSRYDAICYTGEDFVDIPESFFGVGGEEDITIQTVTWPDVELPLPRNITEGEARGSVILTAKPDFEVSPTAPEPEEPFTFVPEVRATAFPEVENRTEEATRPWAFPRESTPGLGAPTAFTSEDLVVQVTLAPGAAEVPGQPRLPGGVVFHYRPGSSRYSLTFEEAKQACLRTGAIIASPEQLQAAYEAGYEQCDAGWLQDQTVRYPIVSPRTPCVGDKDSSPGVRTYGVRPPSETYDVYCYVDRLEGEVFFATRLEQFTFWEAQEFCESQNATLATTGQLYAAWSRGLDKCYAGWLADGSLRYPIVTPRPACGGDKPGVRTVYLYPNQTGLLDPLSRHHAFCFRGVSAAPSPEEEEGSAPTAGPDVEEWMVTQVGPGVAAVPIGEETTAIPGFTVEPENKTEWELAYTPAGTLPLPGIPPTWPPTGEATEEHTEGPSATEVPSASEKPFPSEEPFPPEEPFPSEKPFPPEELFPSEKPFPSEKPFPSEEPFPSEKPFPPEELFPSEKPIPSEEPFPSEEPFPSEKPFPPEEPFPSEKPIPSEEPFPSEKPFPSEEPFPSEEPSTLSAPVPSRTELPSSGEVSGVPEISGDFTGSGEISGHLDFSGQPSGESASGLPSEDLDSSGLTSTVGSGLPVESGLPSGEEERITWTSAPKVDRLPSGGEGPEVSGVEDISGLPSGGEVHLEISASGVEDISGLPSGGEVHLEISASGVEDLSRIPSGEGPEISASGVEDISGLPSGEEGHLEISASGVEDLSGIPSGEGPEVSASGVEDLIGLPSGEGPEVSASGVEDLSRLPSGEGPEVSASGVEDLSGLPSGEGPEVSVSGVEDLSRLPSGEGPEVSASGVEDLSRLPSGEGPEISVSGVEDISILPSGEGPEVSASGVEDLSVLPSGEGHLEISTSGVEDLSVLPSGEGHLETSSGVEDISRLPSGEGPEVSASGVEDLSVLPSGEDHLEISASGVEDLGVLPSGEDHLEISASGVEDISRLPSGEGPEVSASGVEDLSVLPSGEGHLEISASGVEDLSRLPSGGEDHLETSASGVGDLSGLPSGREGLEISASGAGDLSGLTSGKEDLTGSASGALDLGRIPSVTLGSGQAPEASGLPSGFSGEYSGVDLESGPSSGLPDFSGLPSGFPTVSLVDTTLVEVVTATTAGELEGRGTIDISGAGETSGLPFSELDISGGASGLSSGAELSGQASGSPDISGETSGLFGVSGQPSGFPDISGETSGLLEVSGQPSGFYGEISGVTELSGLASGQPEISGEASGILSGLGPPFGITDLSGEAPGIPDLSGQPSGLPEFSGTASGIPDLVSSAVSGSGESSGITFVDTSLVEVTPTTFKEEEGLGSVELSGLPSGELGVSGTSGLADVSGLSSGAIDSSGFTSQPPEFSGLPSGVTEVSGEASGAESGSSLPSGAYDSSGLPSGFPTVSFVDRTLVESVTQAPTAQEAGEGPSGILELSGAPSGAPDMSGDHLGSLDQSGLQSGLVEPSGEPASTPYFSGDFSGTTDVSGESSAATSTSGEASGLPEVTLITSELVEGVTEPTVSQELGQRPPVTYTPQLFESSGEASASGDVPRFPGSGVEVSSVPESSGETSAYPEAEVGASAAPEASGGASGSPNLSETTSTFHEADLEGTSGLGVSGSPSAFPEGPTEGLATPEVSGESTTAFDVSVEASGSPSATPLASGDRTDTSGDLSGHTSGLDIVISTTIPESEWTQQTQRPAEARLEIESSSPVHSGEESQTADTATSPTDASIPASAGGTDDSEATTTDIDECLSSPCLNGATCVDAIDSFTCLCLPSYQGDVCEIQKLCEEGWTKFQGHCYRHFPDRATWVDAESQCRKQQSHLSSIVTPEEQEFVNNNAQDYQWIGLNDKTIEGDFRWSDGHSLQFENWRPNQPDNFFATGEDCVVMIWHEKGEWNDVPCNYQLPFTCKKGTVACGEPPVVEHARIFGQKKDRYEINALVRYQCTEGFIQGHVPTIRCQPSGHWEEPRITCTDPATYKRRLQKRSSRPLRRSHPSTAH

B1: ADMP-1 (aggrecan degrading metallo protease 1), 67 kDa active form purified from conditioned media of IL-1-stimulated bovine nasal cartilage (protein)
chain: FASLSRFVETLVVADDKMAAFHGAGLKRYLLTVMAAAAKAFKHPSIRNPVSLVVTRLVVLGPGEEGPQVGPSAAQTLRSFCAWQRGLNTPDDADPGHFDTAILFTRQDLCGVSTCDTLGMADVGTVCDPARSCAIVEDDGLQSAFTAAHELGHVFSMLHDNSKQCTGLNGPESTSRHVMAPVMAHVDPEEPWSPCSARFITDFLDNGFGHCLLDKPEAPLHLPVTFPGKDYDADRQCQLTFGPDSRHCPQLPPPCAALWCSGHLNGHAMCQTKHSPWADGTPCGPAQACMGGRCLHVDQLQAFNVPQAGGWGPWGSWGDCSRSCGGGVQFSSRDCTRPVPRNGGKYCEGRRTRFRSCNTQDCPTGSALTFREEQCAAYNHRTDLFKNFPGPMDWVPRYTGVAPRDQCKLTCQTRALGYYYVLDPRVADGTPCSPDSSSVCVQGRCIHAGCDRVIGSKKKFDKCMVCGGDGSSCSKQSGSFKKFRYGYNNVVTIPAGATHILVRQQGSPSVRSLYLALKLPDGSYALNGEYTLIPSPTDVVLPGAVSLRYSGATAASETLSGHGPLAEPLTLQVLVAGNPQNARLRYSFFVPRPRPVPSTPRPTPQDWLRRKSQILEILRRRSWAGRK
Consider B1, for which the “ADMP activity (incubation with aggrecan substrate, products monitored with the BC-3 antibody)” value is recorded as “The region of the gel containing the 67 kDa ADMP-1 protein exhibited activity while that of the control portion of the gel did not” and the “cleavage of aggrecan at Glu373-Ala374, detected as BC-3-reactive fragments (Western blot)” value is “Incubation of the GuHCl-eluted ADMP-1 with isolated bovine aggrecan produced a pattern of BC-3-reactive fragments similar to that produced upon cleavage of cartilage aggrecan by endogenous aggrecanase”.
